Positions of bridges follow the written chain, without caps; N, C: chain ends.

Broadly, the Kd is the equilibrium constant for the complex coming apart. One may read the koff as a measure of how fast the partners let go of each other. By kon is commonly meant a measure of how fast the partners come together.

For this test, the target named is T1, Recombinant mouse NELL2 (neural epidermal growth factor-like like 2) (mouse, UniProt Q61220 25-819).
T1 sequence (looked up): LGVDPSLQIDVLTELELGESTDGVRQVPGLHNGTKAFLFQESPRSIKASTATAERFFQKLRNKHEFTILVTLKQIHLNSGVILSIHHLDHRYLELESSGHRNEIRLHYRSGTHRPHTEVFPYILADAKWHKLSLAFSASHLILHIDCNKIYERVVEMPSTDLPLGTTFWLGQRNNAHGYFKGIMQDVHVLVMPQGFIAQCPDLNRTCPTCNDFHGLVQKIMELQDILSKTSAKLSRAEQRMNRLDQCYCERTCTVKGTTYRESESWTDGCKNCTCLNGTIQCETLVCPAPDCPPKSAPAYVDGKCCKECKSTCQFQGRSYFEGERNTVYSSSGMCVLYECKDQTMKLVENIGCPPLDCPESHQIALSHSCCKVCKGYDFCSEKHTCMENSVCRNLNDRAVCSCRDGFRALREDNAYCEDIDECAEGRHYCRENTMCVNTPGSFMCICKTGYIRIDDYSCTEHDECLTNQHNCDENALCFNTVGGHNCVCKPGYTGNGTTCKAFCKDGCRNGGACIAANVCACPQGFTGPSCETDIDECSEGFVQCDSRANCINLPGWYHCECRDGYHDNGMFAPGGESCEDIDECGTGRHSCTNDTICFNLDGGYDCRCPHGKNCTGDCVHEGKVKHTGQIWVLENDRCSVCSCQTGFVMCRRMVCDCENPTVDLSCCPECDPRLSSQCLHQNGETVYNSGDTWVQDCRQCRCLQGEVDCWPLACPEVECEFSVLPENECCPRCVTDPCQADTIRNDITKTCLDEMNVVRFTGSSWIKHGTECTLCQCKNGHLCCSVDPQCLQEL
The test can be described thus: SPR. Background: In SPR one partner is held on a chip, and binding of the other changes the refractive index at the surface.

B1: Synthetic NICOL with the native SS bond pairing 3 (mouse NELL2-interacting cofactor for lumicrine signaling) (natural protein)
chain: EPATGSAVPAQSRPCVDCHAFEFMQRALQDLRKTAYSLDARTETLLLQAERRALCACWPAGR
modifications: disulfide 15-55, 18-57
Turning to B1, the equilibrium dissociation constant (Kd) worked out at 61.7 nM, the koff amounted to 0.00134 s⁻¹ and the kon worked out at 23500 M⁻¹ s⁻¹.

B2: Synthetic NICOL with the SS isomer 4 (mouse NICOL, non-native SS bond pairing) (natural protein)
chain: B1 chain
modifications: disulfide 15-57, 18-55
Regarding B2, the Kd turned out to be 145 nM, the koff was 0.00157 s⁻¹ and the kon is 13800 M⁻¹ s⁻¹.

The record behind these values is PMC12376267 (Chemistry (Weinheim an Der Bergstrasse, Germany), 2025).
